Results from PMC8657803, “Structural Insight into the Binding of TGIF1 to SIN3A PAH2 Domain through a C-Terminal Amphipathic Helix” (International Journal of Molecular Sciences, 2021).

Target: T1, TGIF1_(256–401), recombinant truncation covering RD2 (human, UniProt Q15583-1 256-401)
T1 construct: two additional residues left at the N-terminus after thrombin removal of the purification tag; 15N-labelled in the NMR titration; also called TGIF1 RD2 truncation; TGIF1 M256–A401
Assay: NMR titration; 0.1 mM 15N-labelled TGIF1 truncation mixed with non-labelled SIN3A PAH2 at molar ratios 1:0 to 1:2; 1H-15N HSQC; 20 mM HEPES, 80 mM NaCl, 2 mM DTT, 0.05% NaN3, pH 6.4, 90% H2O/10% D2O; 293 K (25 °C) as printed
Conditions: both partners purified

T1 sequence (Q15583 other isoform, or with tags, fused parts or gaps): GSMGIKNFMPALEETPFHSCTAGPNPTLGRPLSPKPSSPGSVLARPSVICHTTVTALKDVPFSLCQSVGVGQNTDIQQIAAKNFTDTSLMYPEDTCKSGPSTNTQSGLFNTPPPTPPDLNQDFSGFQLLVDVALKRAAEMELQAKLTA

B1: SIN3A PAH2 (residues S295–N384), recombinant (domain or fragment, human, UniProt Q96ST3 295-384, looked up)
chain: SLQNNQPVEFNHAINYVNKIKNRFQGQPDIYKAFLEILHTYQKEQRNAKEAGGNYTPALTEQEVYAQVARLFKNQEDLLSEFGQFLPDAN
notes: SIN3A, human, paired amphipathic helix domain 2 (PAH2), residues S295-N384; Non-labelled
binding result: binds
